{"source": "patent US20070244048A1", "about": "(published 2007)", "key": {"rat NMUR1-ATG [1]": {"target": "T1, rat NMUR1-ATG (rat, UniProt Q9JJI5 1-425)", "T1 sequence (looked up)": "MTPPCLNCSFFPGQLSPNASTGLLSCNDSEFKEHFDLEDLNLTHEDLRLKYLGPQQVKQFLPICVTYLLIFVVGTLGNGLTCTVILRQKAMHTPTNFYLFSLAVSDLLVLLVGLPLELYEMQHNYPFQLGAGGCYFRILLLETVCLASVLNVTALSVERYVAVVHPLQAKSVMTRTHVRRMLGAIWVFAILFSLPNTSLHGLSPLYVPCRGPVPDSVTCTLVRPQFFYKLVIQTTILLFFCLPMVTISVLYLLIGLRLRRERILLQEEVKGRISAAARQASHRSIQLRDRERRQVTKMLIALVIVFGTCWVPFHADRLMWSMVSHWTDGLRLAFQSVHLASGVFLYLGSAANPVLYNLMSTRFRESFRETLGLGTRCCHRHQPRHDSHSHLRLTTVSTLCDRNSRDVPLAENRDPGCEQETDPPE", "experiment": "cell-based or functional assay"}, "human NMUR2 [2]": {"target": "T2, human NMUR2 (human, UniProt Q9GZQ4 1-415)", "T2 sequence (Q9GZQ4 whole entry)": "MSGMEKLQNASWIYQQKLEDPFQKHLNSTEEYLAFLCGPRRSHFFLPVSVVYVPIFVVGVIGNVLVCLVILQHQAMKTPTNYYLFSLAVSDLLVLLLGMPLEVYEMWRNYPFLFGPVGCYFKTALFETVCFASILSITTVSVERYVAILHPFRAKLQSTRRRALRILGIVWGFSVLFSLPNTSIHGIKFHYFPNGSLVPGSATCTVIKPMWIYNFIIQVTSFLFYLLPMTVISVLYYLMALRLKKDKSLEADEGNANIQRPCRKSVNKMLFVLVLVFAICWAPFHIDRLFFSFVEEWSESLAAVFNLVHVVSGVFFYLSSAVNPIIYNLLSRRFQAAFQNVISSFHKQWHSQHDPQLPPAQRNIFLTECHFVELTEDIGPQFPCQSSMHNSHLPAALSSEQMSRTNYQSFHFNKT", "experiment": "cell-based or functional assay"}, "human NMUR1 [3]": {"target": "T3, human NMUR1 (human, UniProt Q9HB89 1-426)", "T3 sequence (looked up)": "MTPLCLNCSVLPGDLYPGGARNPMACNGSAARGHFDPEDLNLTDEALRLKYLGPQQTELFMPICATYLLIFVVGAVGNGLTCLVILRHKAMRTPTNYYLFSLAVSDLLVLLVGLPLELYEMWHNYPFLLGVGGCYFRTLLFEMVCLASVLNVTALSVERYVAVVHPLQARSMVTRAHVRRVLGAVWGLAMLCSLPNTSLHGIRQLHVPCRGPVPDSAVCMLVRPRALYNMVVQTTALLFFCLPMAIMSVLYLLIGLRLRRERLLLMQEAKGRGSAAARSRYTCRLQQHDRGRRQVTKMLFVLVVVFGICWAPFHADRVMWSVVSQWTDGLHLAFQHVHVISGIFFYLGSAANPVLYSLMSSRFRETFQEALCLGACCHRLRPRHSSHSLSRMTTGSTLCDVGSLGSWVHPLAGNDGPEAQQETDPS", "experiment": "cell-based or functional assay"}, "human NMUR2 [4]": {"target": "T2, human NMUR2", "experiment": "cell-based or functional assay", "remark": "listed apart in the source"}, "human NMUR1 [5]": {"target": "T3, human NMUR1", "experiment": "125I-hNMU-25 displacement, HEK cell membranes", "method_in_brief": "(§1)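 HEK cell membranes (2-5 μg) incubated with […] ¹²⁵I-hNMU-25 and peptides for 80 min at room temperature in TrisCl pH 7.4 buffer with MgCl₂, EDTA, bacitracin and phosphoramidon. Bound ligand collected by filtration and scintillation counting; nonspecific binding with 1 μM hNMU-25. IC₅₀ from curve fitting.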"}, "human NMUR2 [6]": {"target": "T2, human NMUR2", "experiment": "125I-hNMU-25 displacement, HEK cell membranes", "method_in_brief": "as §1"}, "rat NMUR2": {"target": "T4, rat NMUR2 (rat, UniProt Q9ESQ4 1-395)", "T4 construct": "whole, on cells; also called rat R2", "T4 sequence (Q9ESQ4 whole entry)": "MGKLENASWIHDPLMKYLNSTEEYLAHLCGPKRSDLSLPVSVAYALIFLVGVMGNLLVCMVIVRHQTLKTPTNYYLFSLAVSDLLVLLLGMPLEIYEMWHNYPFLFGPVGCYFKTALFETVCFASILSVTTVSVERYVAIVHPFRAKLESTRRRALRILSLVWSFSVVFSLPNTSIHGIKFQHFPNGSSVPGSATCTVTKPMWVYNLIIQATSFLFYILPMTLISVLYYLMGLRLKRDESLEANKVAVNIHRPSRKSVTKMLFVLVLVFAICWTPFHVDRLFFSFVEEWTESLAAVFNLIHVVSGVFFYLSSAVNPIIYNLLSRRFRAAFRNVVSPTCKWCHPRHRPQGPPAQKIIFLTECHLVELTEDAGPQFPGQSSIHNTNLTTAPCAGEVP", "experiment": "125I-hNMU-25 displacement, cell membranes"}, "human NMUR1 [7]": {"target": "T3, human NMUR1", "experiment": "125I-hNMU-25 displacement, cell membranes"}, "rat NMUR1-ATG [8]": {"target": "T1, rat NMUR1-ATG", "experiment": "125I-hNMU-25 displacement, cell membranes"}, "mouse NMUR2": {"target": "T5, mouse NMUR2 (mouse, UniProt Q8BZ39 1-395)", "T5 construct": "whole, on cells; also called mouse R2", "T5 sequence (Q8BZ39 whole entry)": "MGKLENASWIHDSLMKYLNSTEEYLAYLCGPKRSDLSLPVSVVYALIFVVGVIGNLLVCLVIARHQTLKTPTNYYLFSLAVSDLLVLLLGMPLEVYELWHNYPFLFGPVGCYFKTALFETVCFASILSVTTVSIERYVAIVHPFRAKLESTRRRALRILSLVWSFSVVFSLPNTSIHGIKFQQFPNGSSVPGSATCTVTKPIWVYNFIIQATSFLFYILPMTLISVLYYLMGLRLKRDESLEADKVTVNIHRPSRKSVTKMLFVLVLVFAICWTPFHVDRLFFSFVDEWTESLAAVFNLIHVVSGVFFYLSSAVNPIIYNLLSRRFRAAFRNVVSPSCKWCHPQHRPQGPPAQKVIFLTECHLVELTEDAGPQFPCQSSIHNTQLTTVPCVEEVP", "experiment": "125I-hNMU-25 displacement, cell membranes"}, "mouse NMUR1-ATG": {"target": "T6, mouse NMUR1-ATG (mouse, UniProt O55040 1-428)", "T6 construct": "whole, on cells; Cell line with engineered ATG start codon in place of the genomic CTG; also called mouse R1-ATG", "T6 sequence (looked up)": "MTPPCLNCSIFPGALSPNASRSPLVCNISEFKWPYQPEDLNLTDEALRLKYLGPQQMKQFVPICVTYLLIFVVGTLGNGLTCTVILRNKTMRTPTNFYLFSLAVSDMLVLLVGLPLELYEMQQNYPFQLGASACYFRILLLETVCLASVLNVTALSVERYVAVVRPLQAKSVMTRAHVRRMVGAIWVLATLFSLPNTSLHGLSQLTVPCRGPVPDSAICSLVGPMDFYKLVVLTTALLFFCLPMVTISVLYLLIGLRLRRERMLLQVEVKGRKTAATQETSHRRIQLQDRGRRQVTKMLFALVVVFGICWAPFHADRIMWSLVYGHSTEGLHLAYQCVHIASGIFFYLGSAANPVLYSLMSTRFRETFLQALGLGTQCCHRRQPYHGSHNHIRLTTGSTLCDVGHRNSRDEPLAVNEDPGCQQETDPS", "experiment": "125I-hNMU-25 displacement, cell membranes"}, "mouse NMUR1-CTG": {"target": "T7, mouse NMUR1-CTG (mouse, UniProt O55040 1-428)", "T7 construct": "whole, on cells; Cell line with the start codon (CTG) as predicted from genomic databases; also called mouse R1-CTG", "T7 sequence (looked up)": "T6 sequence (looked up)", "experiment": "125I-hNMU-25 displacement, cell membranes"}}, "note": "No end group written: not given here.", "data": [{"binder": "FRVDEEFQSPFASQSRGYFLFRPRN-NH2 (also called hNMU-25; native hNMU)", "note": "[human NMU-25]", "values": [{"measurement": "IC50 (nM), functional", "setting": "rat NMUR1-ATG [1]", "result": 1.3, "unit": "nM"}, {"measurement": "IC50 (nM), functional", "setting": "human NMUR2 [2]", "result": 0.8, "unit": "nM"}, {"measurement": "% activity", "setting": "human NMUR1 [3]", "result": 100, "unit": "%"}, {"measurement": "EC50", "setting": "human NMUR1 [3]", "result": 5500, "unit": "pM"}, {"measurement": "% activity", "setting": "human NMUR2 [4]", "result": 100, "unit": "%"}, {"measurement": "EC50", "setting": "human NMUR2 [4]", "result": 1500, "unit": "pM"}, {"measurement": "% activity (binding)", "setting": "human NMUR1 [5]", "result": 100, "unit": "%"}, {"measurement": "IC50", "setting": "human NMUR1 [5]", "result": 470, "unit": "pM"}, {"measurement": "% activity (binding)", "setting": "human NMUR2 [6]", "result": 100, "unit": "%"}, {"measurement": "IC50", "setting": "human NMUR2 [6]", "result": 190, "unit": "pM"}, {"measurement": "IC50", "setting": "rat NMUR2", "result": 600, "unit": "pM"}, {"measurement": "IC50", "setting": "human NMUR1 [7]", "result": 140, "unit": "pM"}, {"measurement": "IC50", "setting": "rat NMUR1-ATG [8]", "result": 1200, "unit": "pM"}, {"measurement": "IC50", "setting": "mouse NMUR2", "result": 200, "unit": "pM"}, {"measurement": "IC50", "setting": "mouse NMUR1-ATG", "result": 400, "unit": "pM"}, {"measurement": "IC50", "setting": "mouse NMUR1-CTG", "result": 150, "unit": "pM"}]}]}
